Measured values as given in US7339039B2, “Nucleic acids encoding receptor recognition factors, and methods of use thereof” (The Rockfeller University, priority 1992, dated 2008).

Tested on: Stat84 and Stat91L homodimers
Test: Dissociation-reassociation analysis (gel mobility shift with GAS probe)
Format: biochemical, human
Conditions: GST fusion protein 0.5 to 5 μM
Protocol: Gel Mobility Shift Assays. Gel mobility shift assays were carried out as described (34). An oligonucleotide corresponding to the GAS element from the human FcγRI receptor gene (Pearse et al. 1993) was synthesized and used for gel mobility shift assays. The oligonucleotide has the following sequence: 5′[…]3′ (SEQ. ID NO:17).
Dissociation-reassociation Analysis. Extracts were incubated with various concentrations of peptides or fusion proteins, and ^32P-labeled GAS oligonucleotide probe in gel shift buffer was then added to promote the formation of protein-DNA complex followed by mobility shift analysis.
Dimerization of Stat91 Involves Phosphoryrosyl Peptide and SH2 Interactions. Based on the results described above, we devised a dissociation-reassociation assay in the absence of guanidium hydrochloride to explore the possible nature of interactions involved in dimer formation (FIG. 20). When the short and the long forms of a homodimer are mixed with a dissociating agent (e.g., a peptide containing the putative dimerization domain), the subunits of the dimer should dissociate (in a concentration dependent fashion) due to the interaction of the agent with the dimerization domain(s) of the protein. […] At high concentration of the dissociating agent, subunits of the dimer may not be able to re-form and no DNA-protein complexes would be detected (FIG. 20).

Sequence of Stat84 and Stat91L homodimers (P42224 2-712 limits assumed): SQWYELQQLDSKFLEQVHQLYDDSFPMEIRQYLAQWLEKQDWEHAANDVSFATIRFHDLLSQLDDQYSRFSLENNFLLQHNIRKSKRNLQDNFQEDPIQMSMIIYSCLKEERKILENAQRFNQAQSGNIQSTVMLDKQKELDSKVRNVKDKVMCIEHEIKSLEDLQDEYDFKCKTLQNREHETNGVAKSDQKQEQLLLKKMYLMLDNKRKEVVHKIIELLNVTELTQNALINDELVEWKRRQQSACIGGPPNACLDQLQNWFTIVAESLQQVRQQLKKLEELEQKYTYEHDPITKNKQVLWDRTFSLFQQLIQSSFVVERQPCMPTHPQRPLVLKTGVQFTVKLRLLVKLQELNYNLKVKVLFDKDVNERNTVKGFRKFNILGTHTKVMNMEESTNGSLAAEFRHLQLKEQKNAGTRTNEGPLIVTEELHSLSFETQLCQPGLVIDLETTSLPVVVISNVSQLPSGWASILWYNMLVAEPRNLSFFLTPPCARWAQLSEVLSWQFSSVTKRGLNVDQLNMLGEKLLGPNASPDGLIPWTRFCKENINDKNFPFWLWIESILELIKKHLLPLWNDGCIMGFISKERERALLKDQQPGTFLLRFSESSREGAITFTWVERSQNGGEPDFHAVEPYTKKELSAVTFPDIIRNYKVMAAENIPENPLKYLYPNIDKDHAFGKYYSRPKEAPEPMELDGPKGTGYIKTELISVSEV

B1: GST-91SH2: GST fusion protein encoding amino acids 573 to 672 of Stat91 (protein)
chain: WNDGCIMGFISKERERALLKDQQPGTFLLRFSESSREGAITFTWVERSQNGGEPDFHAVEPYTKKELSAVTFPDIIRNYKVMAAENIPENPLKYLYPNID
modifications: left off: a dimerising Fc or GST
notes: GST fusion protein encoding amino acids 573 to 672 of Stat91
- formation of heterodimer / exchange of subunits between Stat84 and Stat91L homodimers: promoted the formation of a heterodimer
